# Source: publication PMC9482650, “Quantitative fragmentomics allow affinity mapping of interactomes” (Nature Communications, 2022)
# Target: PDLIM4, P50479
# Experiment: holdup assay
# Parameters: key: below the threshold = too weak to quantify, mostly under pKd 3.1 to 4
# Conditions: plain residues with an end cap or a label only (N-terminal biotin on a linker: ttds)
# PDLIM4, P50479, sequence (P50479 1-83): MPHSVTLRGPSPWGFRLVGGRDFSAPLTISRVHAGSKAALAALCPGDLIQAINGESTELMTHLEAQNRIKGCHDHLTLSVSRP
row,Binder,pKd
1,"SRPQRTQTQV [HPV67-E6, A4U7F2]",below the threshold
2,"SSRTRRETQL [HPV16-E6, P03126]",below the threshold
3,"RSLEEEESQL [GRASP, Q7Z6J2]",below the threshold

# Target: T1, PDZD2_5, O15018
# T1 sequence (O15018 2617-2716, limits assumed, looked up): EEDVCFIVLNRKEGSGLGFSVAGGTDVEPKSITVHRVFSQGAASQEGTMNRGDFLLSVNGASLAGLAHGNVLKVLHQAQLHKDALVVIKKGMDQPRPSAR
# Experiment: holdup assay
# Parameters: key: below the threshold = too weak to quantify, mostly under pKd 3.1 to 4
# Conditions: plain residues with an end cap or a label only (N-terminal biotin on a linker: ttds)
row,Binder,pKd
1,"SRPQRTQTQV [HPV67-E6, A4U7F2]",below the threshold
2,"SSRTRRETQL [HPV16-E6, P03126]",below the threshold
3,"RSLEEEESQL [GRASP, Q7Z6J2]",4.22

# Target: T2, PARD6B, Q9BYG5
# T2 sequence (Q9BYG5 152-260, limits assumed, looked up): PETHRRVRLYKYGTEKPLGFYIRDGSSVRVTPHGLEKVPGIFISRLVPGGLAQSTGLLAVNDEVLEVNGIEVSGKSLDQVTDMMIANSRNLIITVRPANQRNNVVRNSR
# Experiment: holdup assay
# Parameters: key: below the threshold = too weak to quantify, mostly under pKd 3.1 to 4
# Conditions: plain residues with an end cap or a label only (N-terminal biotin on a linker: ttds)
row,Binder,pKd
1,"SRPQRTQTQV [HPV67-E6, A4U7F2]",below the threshold
2,"SSRTRRETQL [HPV16-E6, P03126]",below the threshold
3,"RSLEEEESQL [GRASP, Q7Z6J2]",below the threshold

# Target: T3, SYNPO2L, Q9H987
# T3 sequence (Q9H987 1-98, limits assumed, looked up): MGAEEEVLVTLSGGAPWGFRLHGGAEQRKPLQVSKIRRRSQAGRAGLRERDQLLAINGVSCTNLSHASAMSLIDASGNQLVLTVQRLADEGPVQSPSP
# Experiment: holdup assay
# Parameters: key: below the threshold = too weak to quantify, mostly under pKd 3.1 to 4
# Conditions: plain residues with an end cap or a label only (N-terminal biotin on a linker: ttds)
row,Binder,pKd
1,"SRPQRTQTQV [HPV67-E6, A4U7F2]",below the threshold
2,"SSRTRRETQL [HPV16-E6, P03126]",below the threshold
3,"RSLEEEESQL [GRASP, Q7Z6J2]",below the threshold

# Target: Inadl_7, Q8NI35
# Sequence (Q8NI35 1219-1332): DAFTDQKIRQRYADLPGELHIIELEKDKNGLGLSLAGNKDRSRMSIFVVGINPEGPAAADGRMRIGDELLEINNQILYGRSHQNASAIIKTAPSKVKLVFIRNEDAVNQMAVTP
# Experiment: holdup assay
# Parameters: key: below the threshold = too weak to quantify, mostly under pKd 3.1 to 4
# Conditions: plain residues with an end cap or a label only (N-terminal biotin on a linker: ttds)
row,Binder,pKd
1,"SRPQRTQTQV [HPV67-E6, A4U7F2]",4.46
2,"SSRTRRETQL [HPV16-E6, P03126]",below the threshold
3,"RSLEEEESQL [GRASP, Q7Z6J2]",below the threshold

# Target: NHERF2_1, Q15599
# Sequence (Q15599 9-91): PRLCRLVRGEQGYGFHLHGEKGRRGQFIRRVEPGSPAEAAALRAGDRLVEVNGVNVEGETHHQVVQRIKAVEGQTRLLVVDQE
# Experiment: holdup assay
# Parameters: key: below the threshold = too weak to quantify, mostly under pKd 3.1 to 4
# Conditions: plain residues with an end cap or a label only (N-terminal biotin on a linker: ttds)
row,Binder,pKd
1,"SRPQRTQTQV [HPV67-E6, A4U7F2]",below the threshold
2,"SSRTRRETQL [HPV16-E6, P03126]",below the threshold
3,"RSLEEEESQL [GRASP, Q7Z6J2]",below the threshold

# Target: SDCBP_1, O00560
# Sequence (O00560 111-198): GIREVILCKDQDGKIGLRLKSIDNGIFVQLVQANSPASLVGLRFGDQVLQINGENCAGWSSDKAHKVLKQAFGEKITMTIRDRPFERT
# Experiment: holdup assay
# Parameters: key: below the threshold = too weak to quantify, mostly under pKd 3.1 to 4
# Conditions: plain residues with an end cap or a label only (N-terminal biotin on a linker: ttds)
row,Binder,pKd
1,"SRPQRTQTQV [HPV67-E6, A4U7F2]",below the threshold
2,"SSRTRRETQL [HPV16-E6, P03126]",below the threshold
3,"RSLEEEESQL [GRASP, Q7Z6J2]",below the threshold

# Target: O43166
# Experiment: holdup assay
# Parameters: key: below the threshold = too weak to quantify, mostly under pKd 3.1 to 4
# Conditions: plain residues with an end cap or a label only (N-terminal biotin on a linker: ttds)
row,Binder,pKd
1,"RSLEEEESQL [GRASP, Q7Z6J2]",below the threshold

# Target: Q9ULJ8
# Experiment: holdup assay
# Parameters: key: below the threshold = too weak to quantify, mostly under pKd 3.1 to 4
# Conditions: plain residues with an end cap or a label only (N-terminal biotin on a linker: ttds)
row,Binder,pKd
1,"RSLEEEESQL [GRASP, Q7Z6J2]",below the threshold

# Target: T4, TJP3_1, O95049
# T4 sequence (O95049 6-103, limits assumed, looked up): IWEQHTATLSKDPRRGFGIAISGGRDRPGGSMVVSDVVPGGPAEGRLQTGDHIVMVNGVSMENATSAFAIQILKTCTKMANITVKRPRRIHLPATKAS
# Experiment: holdup assay
# Parameters: key: below the threshold = too weak to quantify, mostly under pKd 3.1 to 4
# Conditions: plain residues with an end cap or a label only (N-terminal biotin on a linker: ttds)
row,Binder,pKd
1,"SRPQRTQTQV [HPV67-E6, A4U7F2]",below the threshold
2,"SSRTRRETQL [HPV16-E6, P03126]",below the threshold
3,"RSLEEEESQL [GRASP, Q7Z6J2]",below the threshold

# Target: Q8TEW0
# Experiment: holdup assay
# Parameters: key: below the threshold = too weak to quantify, mostly under pKd 3.1 to 4
# Conditions: plain residues with an end cap or a label only (N-terminal biotin on a linker: ttds)
row,Binder,pKd
1,"RSLEEEESQL [GRASP, Q7Z6J2]",below the threshold

# Target: T5, MPDZ_7, O75970
# T5 sequence (O75970 1146-1253, limits assumed, looked up): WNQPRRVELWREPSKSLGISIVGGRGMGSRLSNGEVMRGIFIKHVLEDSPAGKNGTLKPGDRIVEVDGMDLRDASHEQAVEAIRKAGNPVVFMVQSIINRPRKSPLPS
# Experiment: holdup assay
# Parameters: key: below the threshold = too weak to quantify, mostly under pKd 3.1 to 4
# Conditions: plain residues with an end cap or a label only (N-terminal biotin on a linker: ttds)
row,Binder,pKd
1,"SRPQRTQTQV [HPV67-E6, A4U7F2]",below the threshold
2,"SSRTRRETQL [HPV16-E6, P03126]",4.22
3,"RSLEEEESQL [GRASP, Q7Z6J2]",below the threshold

# Target: MAGI3_4, Q5TCQ9
# Sequence (Q5TCQ9 716-815): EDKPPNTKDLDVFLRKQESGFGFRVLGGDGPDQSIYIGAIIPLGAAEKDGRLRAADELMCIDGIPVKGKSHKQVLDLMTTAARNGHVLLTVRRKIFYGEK
# Experiment: holdup assay
# Parameters: key: below the threshold = too weak to quantify, mostly under pKd 3.1 to 4
# Conditions: plain residues with an end cap or a label only (N-terminal biotin on a linker: ttds)
row,Binder,pKd
1,"SRPQRTQTQV [HPV67-E6, A4U7F2]",below the threshold
2,"SSRTRRETQL [HPV16-E6, P03126]",below the threshold
3,"RSLEEEESQL [GRASP, Q7Z6J2]",below the threshold

# Target: T6, MLLT4, P55196
# T6 sequence (P55196 1002-1103, limits assumed, looked up): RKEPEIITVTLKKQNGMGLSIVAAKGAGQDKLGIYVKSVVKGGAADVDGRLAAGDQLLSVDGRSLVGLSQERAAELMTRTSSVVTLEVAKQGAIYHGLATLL
# Experiment: holdup assay
# Parameters: key: below the threshold = too weak to quantify, mostly under pKd 3.1 to 4
# Conditions: plain residues with an end cap or a label only (N-terminal biotin on a linker: ttds)
row,Binder,pKd
1,"SRPQRTQTQV [HPV67-E6, A4U7F2]",below the threshold
2,"SSRTRRETQL [HPV16-E6, P03126]",below the threshold
3,"RSLEEEESQL [GRASP, Q7Z6J2]",below the threshold

# Target: T7, PDZD2_4, O15018
# T7 sequence (O15018 723-823, limits assumed, looked up): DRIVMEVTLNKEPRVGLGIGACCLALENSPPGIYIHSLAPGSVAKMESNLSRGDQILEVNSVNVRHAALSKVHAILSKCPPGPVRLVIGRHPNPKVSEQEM
# Experiment: holdup assay
# Parameters: key: below the threshold = too weak to quantify, mostly under pKd 3.1 to 4
# Conditions: plain residues with an end cap or a label only (N-terminal biotin on a linker: ttds)
row,Binder,pKd
1,"SRPQRTQTQV [HPV67-E6, A4U7F2]",below the threshold
2,"SSRTRRETQL [HPV16-E6, P03126]",below the threshold
3,"RSLEEEESQL [GRASP, Q7Z6J2]",below the threshold

# Target: MAST3, O60307
# Sequence (O60307 945-1048): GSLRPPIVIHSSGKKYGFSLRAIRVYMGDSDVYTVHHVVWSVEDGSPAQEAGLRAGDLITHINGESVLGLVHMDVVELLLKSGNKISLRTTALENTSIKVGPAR
# Experiment: holdup assay
# Parameters: key: below the threshold = too weak to quantify, mostly under pKd 3.1 to 4
# Conditions: plain residues with an end cap or a label only (N-terminal biotin on a linker: ttds)
row,Binder,pKd
1,"SRPQRTQTQV [HPV67-E6, A4U7F2]",below the threshold
2,"SSRTRRETQL [HPV16-E6, P03126]",below the threshold
3,"RSLEEEESQL [GRASP, Q7Z6J2]",below the threshold

# Target: Q9UDY2
# Experiment: holdup assay
# Parameters: key: below the threshold = too weak to quantify, mostly under pKd 3.1 to 4
# Conditions: plain residues with an end cap or a label only (N-terminal biotin on a linker: ttds)
row,Binder,pKd
1,"RSLEEEESQL [GRASP, Q7Z6J2]",below the threshold

# Target: Q96HC4
# Experiment: holdup assay
# Parameters: key: below the threshold = too weak to quantify, mostly under pKd 3.1 to 4
# Conditions: plain residues with an end cap or a label only (N-terminal biotin on a linker: ttds)
row,Binder,pKd
1,"RSLEEEESQL [GRASP, Q7Z6J2]",below the threshold

# Target: T8, PARD6G, Q9BYG4
# T8 sequence (Q9BYG4 153-261, limits assumed, looked up): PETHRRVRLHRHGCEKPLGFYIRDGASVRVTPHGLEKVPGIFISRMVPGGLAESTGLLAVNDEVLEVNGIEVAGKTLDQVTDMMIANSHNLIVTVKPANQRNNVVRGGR
# Experiment: holdup assay
# Parameters: key: below the threshold = too weak to quantify, mostly under pKd 3.1 to 4
# Conditions: plain residues with an end cap or a label only (N-terminal biotin on a linker: ttds)
row,Binder,pKd
1,"SRPQRTQTQV [HPV67-E6, A4U7F2]",below the threshold
2,"SSRTRRETQL [HPV16-E6, P03126]",below the threshold
3,"RSLEEEESQL [GRASP, Q7Z6J2]",below the threshold

# Target: T9, SHROOM3, Q8TF72
# T9 sequence (Q8TF72 20-120, limits assumed, looked up): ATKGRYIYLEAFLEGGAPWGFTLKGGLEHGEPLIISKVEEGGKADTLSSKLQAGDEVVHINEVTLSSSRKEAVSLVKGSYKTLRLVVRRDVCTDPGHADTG
# Experiment: holdup assay
# Parameters: key: below the threshold = too weak to quantify, mostly under pKd 3.1 to 4
# Conditions: plain residues with an end cap or a label only (N-terminal biotin on a linker: ttds)
row,Binder,pKd
1,"SRPQRTQTQV [HPV67-E6, A4U7F2]",below the threshold
2,"SSRTRRETQL [HPV16-E6, P03126]",below the threshold
3,"RSLEEEESQL [GRASP, Q7Z6J2]",below the threshold

# Target: T10, MPDZ_11, O75970
# T10 sequence (O75970 1720-1817, limits assumed, looked up): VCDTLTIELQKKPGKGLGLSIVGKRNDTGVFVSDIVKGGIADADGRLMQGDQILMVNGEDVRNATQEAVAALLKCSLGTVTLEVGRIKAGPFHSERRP
# Experiment: holdup assay
# Parameters: key: below the threshold = too weak to quantify, mostly under pKd 3.1 to 4
# Conditions: plain residues with an end cap or a label only (N-terminal biotin on a linker: ttds)
row,Binder,pKd
1,"SRPQRTQTQV [HPV67-E6, A4U7F2]",below the threshold
2,"SSRTRRETQL [HPV16-E6, P03126]",below the threshold
3,"RSLEEEESQL [GRASP, Q7Z6J2]",below the threshold

# Target: PREX1_1, Q8TCU6
# Sequence (Q8TCU6 608-718): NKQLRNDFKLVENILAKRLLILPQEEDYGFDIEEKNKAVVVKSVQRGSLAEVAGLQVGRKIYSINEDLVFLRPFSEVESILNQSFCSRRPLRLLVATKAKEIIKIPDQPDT
# Experiment: holdup assay
# Parameters: key: below the threshold = too weak to quantify, mostly under pKd 3.1 to 4
# Conditions: plain residues with an end cap or a label only (N-terminal biotin on a linker: ttds)
row,Binder,pKd
1,"SRPQRTQTQV [HPV67-E6, A4U7F2]",below the threshold
2,"SSRTRRETQL [HPV16-E6, P03126]",below the threshold
3,"RSLEEEESQL [GRASP, Q7Z6J2]",4.08

# Target: T11, PTPN4, P29074
# T11 sequence (P29074 512-599, limits assumed, looked up): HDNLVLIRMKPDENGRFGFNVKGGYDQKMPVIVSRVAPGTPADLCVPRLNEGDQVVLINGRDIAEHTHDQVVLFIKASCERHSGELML
# Experiment: holdup assay
# Parameters: key: below the threshold = too weak to quantify, mostly under pKd 3.1 to 4
# Conditions: plain residues with an end cap or a label only (N-terminal biotin on a linker: ttds)
row,Binder,pKd
1,"SRPQRTQTQV [HPV67-E6, A4U7F2]",below the threshold
2,"SSRTRRETQL [HPV16-E6, P03126]",4.61
3,"RSLEEEESQL [GRASP, Q7Z6J2]",below the threshold

# Target: T12, PDZD7_2, Q9H5P4
# T12 sequence (Q9H5P4 205-303, limits assumed, looked up): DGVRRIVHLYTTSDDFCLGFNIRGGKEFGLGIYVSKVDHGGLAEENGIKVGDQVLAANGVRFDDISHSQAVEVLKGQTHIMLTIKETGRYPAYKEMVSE
# Experiment: holdup assay
# Parameters: key: below the threshold = too weak to quantify, mostly under pKd 3.1 to 4
# Conditions: plain residues with an end cap or a label only (N-terminal biotin on a linker: ttds)
row,Binder,pKd
1,"SRPQRTQTQV [HPV67-E6, A4U7F2]",below the threshold
2,"SSRTRRETQL [HPV16-E6, P03126]",below the threshold
3,"RSLEEEESQL [GRASP, Q7Z6J2]",below the threshold

# Target: T13, MPP5, Q8N3R9
# T13 sequence (Q8N3R9 251-346, limits assumed, looked up): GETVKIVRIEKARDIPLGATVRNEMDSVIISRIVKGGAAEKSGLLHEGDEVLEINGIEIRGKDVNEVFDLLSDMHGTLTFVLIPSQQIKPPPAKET
# Experiment: holdup assay
# Parameters: key: below the threshold = too weak to quantify, mostly under pKd 3.1 to 4
# Conditions: plain residues with an end cap or a label only (N-terminal biotin on a linker: ttds)
row,Binder,pKd
1,"SRPQRTQTQV [HPV67-E6, A4U7F2]",below the threshold
2,"SSRTRRETQL [HPV16-E6, P03126]",below the threshold
3,"RSLEEEESQL [GRASP, Q7Z6J2]",below the threshold
